Changes are numbered by the printed parent chain.

In the experiment the target is ANDV Gn^H/Gc (Andes virus; strain , Q9E006 …, UniProt Q9E006). In words: BLI. For orientation: In BLI a coated tip is dipped into the sample, and binding shifts an interference pattern.

B1: ADI-42898 (monoclonal antibody, IgG) (antibody, V domains shown)
VH: QVQLVESGGGVVQPGRSLRLSCAASGFTFSSYAMHWVRQAPGKGLEWVAVTWFDVSKKDYADSVKGRFTISRDNSKNTLYLQMNSLRAEDTAVYYCARNLIRYSGSYFPVHGMDVWGQGTTVTVSS
VL: DIVMTQSPLSLPVTPGEPASISCRSSQSLLHTYGYNCLDWYLQRPGQSPQLLISLGSYRASGVPDRFSGSGSGTDFTLKISRVEAEDVGVYYCMQALHPFTFGGGTKVEIK
B1: the “half-life (t1/2) of the complex at pH 5.5” value amounted to 519 s.

B2: ADI-65533 (antibody, V domains shown)
VH: B1 VH with G105V
VL: B1 VL with C37V
For the molecule B2, the “fold reduction of dissociation at acidic pH against ADI-42898” value stood at 10 fold.

B3: ADI-65534 (antibody, V domains shown)
VH: B1 VH with T28E, G105V
VL: B1 VL with C37V
As to B3, the “fold reduction of dissociation at acidic pH against ADI-42898” value is 10 fold.

(Values after article PMC11721787 (Science translational medicine, 2023).)
